Results on one protein are retold here after patent US20220251522.

The target in this data set is T1, PoSP:SGSH^OPT:His.
T1 chain: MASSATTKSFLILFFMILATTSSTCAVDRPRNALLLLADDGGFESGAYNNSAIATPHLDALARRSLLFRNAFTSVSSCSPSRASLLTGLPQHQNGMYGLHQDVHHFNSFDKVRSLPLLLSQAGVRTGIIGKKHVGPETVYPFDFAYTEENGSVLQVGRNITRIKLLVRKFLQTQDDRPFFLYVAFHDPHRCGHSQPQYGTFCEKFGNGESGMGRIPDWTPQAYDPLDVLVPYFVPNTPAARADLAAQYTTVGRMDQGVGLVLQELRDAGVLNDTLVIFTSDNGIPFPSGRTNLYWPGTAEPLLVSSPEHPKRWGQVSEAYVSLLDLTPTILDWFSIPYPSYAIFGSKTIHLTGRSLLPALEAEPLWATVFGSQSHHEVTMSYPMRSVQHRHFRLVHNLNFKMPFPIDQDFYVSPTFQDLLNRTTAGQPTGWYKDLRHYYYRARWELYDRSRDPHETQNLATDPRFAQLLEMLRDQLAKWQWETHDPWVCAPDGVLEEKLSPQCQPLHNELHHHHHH

B1: PoSP:SUMF1^OPT:His:KDEL (protein)
chain: MASSATTKSFLILFFMILATTSSTCAVDSQEAGTGAGAGSLAGSCGCGTPQRPGAHGSSAAAHRYSREANAPGPVPGERQLAHSKMVPIPAGVFTMGTDDPQIKQDGEAPARRVTIDAFYMDAYEVSNTEFEKFVNSTGYLTEAEKFGDSFVFEGMLSEQVKTNIQQAVAAAPWWLPVKGANWRHPEGPDSTILHRPDHPVLHVSWNDAVAYCTWAGKRLPTEAEWEYSCRGGLHNRLFPWGNKLQPKGQHYANIWQGEFPVTNTGEDGFQGTAPVDAFPPNGYGLYNIVGNAWEWTSDWWTVHHSVEETLNPKGPPSGKDRVKKGGSYMCHRSYCYRYRCAARSQNTPDSSASNLGFRCAADRLPTMDHHHHHHKDEL
Regarding B1, the sulfamidase enzymatic activity entry is “plant-made SGSH (S4 and S12) were enzymatically active only when SUMF1 was co-expressed”.
